Laboratory results as given in the supplement of paper PMC10724198.
± gives the standard deviation of the averaged measurements.

Test system: Saccharomyces cerevisiae
Experiment: protein stability index of tFT-peptide fusion (C-terminal peptide) (PSI (0-1 scale)); higher = more stable (slower turnover)
Details: temperature: 30 C
Experimental: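 MPS profiling in S. cerevisiae of the yeast C-terminome library: the last 12 aa of each annotated ORF are fused to the C-terminus of a sfGFP-mCherry timer, after a GGGS linker. Cells are FACS-sorted into 8 mCherry/sfGFP bins and deep-sequenced. PSI runs from 0 (unstable) to 1 (stable); wild type and das1Δ backgrounds, two technical replicates each.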

[1] = genetic background: das1 deletion

Row | Sequence | protein stability index [1] | protein stability index (genetic background: wild type)
1 | EGIETTHNKRIR [AMA1 C-terminal 12 aa] | 0.675 ± 0.018 | 0.666 ± 0.036
2 | TLHLVLRLRGGN [UBI4 C-terminal 12 aa] | 0.665 ± 0.013 | 0.687 ± 0.067
3 | ELWTLQAPELNL [YKL036C C-terminal 12 aa] | 0.72 ± 0.021 | 0.702 ± 0.04
4 | CPTPGCTCQCNK [SEA4 C-terminal 12 aa] | 0.69 ± 0.015 | 0.659 ± 0.0093
5 | KVPPRKDGIKFR [RTS2 C-terminal 12 aa] | 0.728 ± 0.0069 | 0.695 ± 0.018
6 | SKLNNGEIIVID [SRS2 C-terminal 12 aa] | 0.685 ± 0.0081 | 0.702 ± 0.047
7 | RSPKGNSIIEEI [BTN2 C-terminal 12 aa] | 0.695 ± 0.026 | 0.655 ± 0.02
8 | DSELGCCCCFFN [EDS1 C-terminal 12 aa] | 0.701 ± 0.03 | 0.696 ± 0.018
9 | LGVVSKMLVTCK [CIA2 C-terminal 12 aa] | 0.303 ± 0.026 | 0.326 ± 0.0041
10 | LNSYEEEANGST [SHG1 C-terminal 12 aa] | 0.7062 ± 0.0036 | 0.734 ± 0.028
11 | EHLWNCFFHGSD [IRC20 C-terminal 12 aa] | 0.73 ± 0.012 | 0.731 ± 0.061
12 | TYYRRRATANSL [YMR155W C-terminal 12 aa] | 0.6958 ± 0.0045 | 0.676 ± 0.011
13 | MVVIVLFLSYRN [YGL177W C-terminal 12 aa] | 0.276 ± 0.034 | 0.275 ± 0.031
14 | TSIESALITLDL [MER1 C-terminal 12 aa] | 0.682 ± 0.016 | 0.695 ± 0.032
15 | MISGPSSSSSAP [CYC3 C-terminal 12 aa] | 0.719 ± 0.012 | 0.741 ± 0.081
16 | GEAVPEPVEEES [SEC27 C-terminal 12 aa] | 0.698 ± 0.013 | 0.691 ± 0.043
17 | VLLTAYKKLLTK [KEG1 C-terminal 12 aa] | 0.685 ± 0.021 | 0.62079 ± 0.00024
18 | LLGENLSDMPSL [RDS1 C-terminal 12 aa] | 0.6893 ± 0.0025 | 0.693 ± 0.021
19 | FFTTCTIGCYDA [BUD7 C-terminal 12 aa] | 0.6871 ± 0.0048 | 0.6861 ± 0.0047
20 | FLGIELHAFFVS [YOL035C C-terminal 12 aa] | 0.6355 ± 0.0029 | 0.635 ± 0.058
21 | NWDQHNPRNSIH [IRC10 C-terminal 12 aa] | 0.719 ± 0.013 | 0.78 ± 0.067

Row | Sequence | protein stability index [1] | protein stability index (genetic background: wild type)
22 | KIHTAAIAAFKQ [ATP12 C-terminal 12 aa] | 0.7013 ± 0.0055 | 0.612 ± 0.033
23 | RSIIKLPVTKGL [YBL008W-A C-terminal 12 aa] | 0.6946 ± 0.0058 | 0.6596 ± 0.0024
24 | PISSKYTDGKKR [YPL205C C-terminal 12 aa] | 0.686 ± 0.012 | 0.695 ± 0.013
25 | EVLHEWKSHINQ [BIO3 C-terminal 12 aa] | 0.743 ± 0.017 | 0.6763 ± 0.0056
26 | AGAAAVANQGKK [GPM1 C-terminal 12 aa] | 0.697 ± 0.016 | 0.715 ± 0.064
27 | RAEIVIEEAGEL [CPR3 C-terminal 12 aa] | 0.683 ± 0.011 | 0.6789 ± 0.0032
28 | KILKGAEKKPQL [CNA1 C-terminal 12 aa] | 0.689 ± 0.0099 | 0.707 ± 0.022
29 | ILKPYYIWNNRN [ARR3 C-terminal 12 aa] | 0.7161 ± 0.0069 | 0.276 ± 0.0074
30 | YPTFDDNNFFAL [RFA2 C-terminal 12 aa] | 0.732 ± 0.012 | 0.717 ± 0.0086
31 | MNKAEDDISEEE [SUB1 C-terminal 12 aa] | 0.713 ± 0.029 | 0.684 ± 0.011
32 | ESQPAPKEAPDY [SNP1 C-terminal 12 aa] | 0.674 ± 0.028 | 0.702 ± 0.022
33 | CFRWLVRNHLLS [YEL045C C-terminal 12 aa] | 0.692 ± 0.0081 | 0.187 ± 0.0022
34 | CHAYAKKAKEFL [PAM17 C-terminal 12 aa] | 0.694 ± 0.019 | 0.7 ± 0.047
35 | YNPGLSMDFLTA [BCD1 C-terminal 12 aa] | 0.6899 ± 0.0018 | 0.714 ± 0.014
36 | DNDNDDDIDSDN [RUP1 C-terminal 12 aa] | 0.704 ± 0.051 | 0.6853 ± 0.0067
37 | KAEYLKNCPITQ [RPC40 C-terminal 12 aa] | 0.712 ± 0.012 | 0.719 ± 0.028
38 | LRLKYNDANTKL [VTC1 C-terminal 12 aa] | 0.68 ± 0.011 | 0.6552 ± 0.0047
39 | EEGQTQPEEESA [BUR6 C-terminal 12 aa] | 0.691 ± 0.0078 | 0.692 ± 0.033
40 | VLERVSRGAGSH [COF1 C-terminal 12 aa] | 0.7039 ± 0.0025 | 0.688 ± 0.036
41 | TSGRYASYRICM [RPB5 C-terminal 12 aa] | 0.6941 ± 0.0011 | 0.664 ± 0.011
42 | GAPSLYSYLLCL [IRC2 C-terminal 12 aa] | 0.684 ± 0.0082 | 0.487 ± 0.019

Row | Sequence | protein stability index [1] | protein stability index (genetic background: wild type)
43 | ERKLSTKKVSVE [YHR078W C-terminal 12 aa] | 0.707 ± 0.052 | 0.7 ± 0.032
44 | ILRQARCDRPHY [YEL068C C-terminal 12 aa] | 0.691 ± 0.02 | 0.727 ± 0.071
45 | EKANDIGFNKFR [RPS29A C-terminal 12 aa] | 0.678 ± 0.014 | 0.7106 ± 0.006
46 | KAPKILYKRKGY [HPA2 C-terminal 12 aa] | 0.685 ± 0.024 | 0.675 ± 0.036
47 | RDLHVEHDNEFY [RPD3 C-terminal 12 aa] | 0.718 ± 0.019 | 0.662 ± 0.074
48 | TASYLKDAVYLH [ATP6 C-terminal 12 aa] | 0.699 ± 0.031 | 0.703 ± 0.025
49 | IFIFSWLGYEDS [ATG10 C-terminal 12 aa] | 0.661 ± 0.043 | 0.664 ± 0.019
50 | GAVVAGAAALLL [TIP1 C-terminal 12 aa] | 0.729 ± 0.024 | 0.709 ± 0.032
51 | LLQVCFIGVVCE [IRC21 C-terminal 12 aa] | 0.275 ± 0.0082 | 0.2885 ± 0.0018
52 | KKKSRAKKPGNV [HDA3 C-terminal 12 aa] | 0.685 ± 0.011 | 0.734 ± 0.041
53 | YISDHIWKTSSH [YOR302W C-terminal 12 aa] | 0.743 ± 0.04 | 0.698 ± 0.035
54 | GSESILTAKQPI [OCA2 C-terminal 12 aa] | 0.706 ± 0.0075 | 0.685 ± 0.009
55 | STDEKRLVMSLK [IMH1 C-terminal 12 aa] | 0.692 ± 0.042 | 0.709 ± 0.014
56 | WTKDLGCWSLYK [HIR1 C-terminal 12 aa] | 0.716 ± 0.025 | 0.6994 ± 0.0037
57 | NEKLSRESKGSE [SYF2 C-terminal 12 aa] | 0.687 ± 0.01 | 0.691 ± 0.014
58 | QRTLVYKHKNDC [YLR285C-A C-terminal 12 aa] | 0.686 ± 0.0091 | 0.657 ± 0.0068
59 | KYVTQILYTPLQ [GAL83 C-terminal 12 aa] | 0.692 ± 0.0075 | 0.7144 ± 0.0036
60 | ARRTFTGRKIVY [ARC35 C-terminal 12 aa] | 0.7301 ± 0.0013 | 0.7288 ± 0.0052
61 | GTVDEIIKFLSE [YTA7 C-terminal 12 aa] | 0.725 ± 0.023 | 0.736 ± 0.066
62 | VLPTWADKVINE [SPE4 C-terminal 12 aa] | 0.69 ± 0.0095 | 0.677 ± 0.012
63 | VQWSRPRRGDVL [LAM6 C-terminal 12 aa] | 0.7079 ± 0.0014 | 0.703 ± 0.051

Row | Sequence | protein stability index [1] | protein stability index (genetic background: wild type)
64 | RLGLDWKPDGMS [STD1 C-terminal 12 aa] | 0.725 ± 0.029 | 0.6963 ± 0.0059
65 | ALVDQLIAKYSS [ACB1 C-terminal 12 aa] | 0.703 ± 0.029 | 0.663 ± 0.042
66 | IYEGFLDHANSF [TFB6 C-terminal 12 aa] | 0.735 ± 0.011 | 0.745 ± 0.012
67 | MESNDNLERVLS [APS1 C-terminal 12 aa] | 0.673 ± 0.038 | 0.695 ± 0.032
68 | GKNKKKSKHSKK [PRP43 C-terminal 12 aa] | 0.702 ± 0.057 | 0.651 ± 0.0029
69 | RKEKDPETYLDK [ERG8 C-terminal 12 aa] | 0.691 ± 0.023 | 0.684 ± 0.01
70 | YNTTSITNSTSW [SRL1 C-terminal 12 aa] | 0.711 ± 0.016 | 0.722 ± 0.09
71 | DVETRVQNLEQT [DPB4 C-terminal 12 aa] | 0.713 ± 0.032 | 0.699 ± 0.013
72 | KYLNDEQVKLNV [ADE13 C-terminal 12 aa] | 0.72 ± 0.026 | 0.68 ± 0.035
73 | QVRDILDKLNII [PRB1 C-terminal 12 aa] | 0.703 ± 0.015 | 0.6877 ± 0.0033
74 | EHVGKQCGYKYH [STP3 C-terminal 12 aa] | 0.705 ± 0.023 | 0.7096 ± 0.0013
75 | NDISFAFQYISH [RAD54 C-terminal 12 aa] | 0.749 ± 0.014 | 0.683 ± 0.069
76 | KAIRRCQAIGLM [RSM18 C-terminal 12 aa] | 0.683 ± 0.014 | 0.672 ± 0.0076
77 | GDDESRPRKMRR [BMS1 C-terminal 12 aa] | 0.678 ± 0.0091 | 0.674 ± 0.012
78 | EGEDEELDIDDI [TIF11 C-terminal 12 aa] | 0.671 ± 0.0097 | 0.6717 ± 0.0065
79 | TSASSNFDDSFS [YCR018C-A C-terminal 12 aa] | 0.6885 ± 0.0016 | 0.717 ± 0.062
80 | FKKSYKGVSKNL [MGM1 C-terminal 12 aa] | 0.704 ± 0.013 | 0.695 ± 0.022
81 | FSCHSFEYLARR [YDR401W C-terminal 12 aa] | 0.701 ± 0.013 | 0.677 ± 0.047
82 | YLKNFFVKQKVV [ERP5 C-terminal 12 aa] | 0.549 ± 0.0073 | 0.16 ± 0.026
